Laboratory results from paper PMC9299196, “Profiling the specificity of clonally expanded plasma cells during chronic viral infection by single‐cell analysis” (European Journal of Immunology, 2021).
Changes are numbered by the printed parent chain. Read-outs that look alike come from different tables or passages of the source.

T1: LCMV clone 13 nucleocapsid protein (NP), purified recombinant (Lymphocytic choriomeningitis virus …, UniProt P09992 1-558)
T1 chain: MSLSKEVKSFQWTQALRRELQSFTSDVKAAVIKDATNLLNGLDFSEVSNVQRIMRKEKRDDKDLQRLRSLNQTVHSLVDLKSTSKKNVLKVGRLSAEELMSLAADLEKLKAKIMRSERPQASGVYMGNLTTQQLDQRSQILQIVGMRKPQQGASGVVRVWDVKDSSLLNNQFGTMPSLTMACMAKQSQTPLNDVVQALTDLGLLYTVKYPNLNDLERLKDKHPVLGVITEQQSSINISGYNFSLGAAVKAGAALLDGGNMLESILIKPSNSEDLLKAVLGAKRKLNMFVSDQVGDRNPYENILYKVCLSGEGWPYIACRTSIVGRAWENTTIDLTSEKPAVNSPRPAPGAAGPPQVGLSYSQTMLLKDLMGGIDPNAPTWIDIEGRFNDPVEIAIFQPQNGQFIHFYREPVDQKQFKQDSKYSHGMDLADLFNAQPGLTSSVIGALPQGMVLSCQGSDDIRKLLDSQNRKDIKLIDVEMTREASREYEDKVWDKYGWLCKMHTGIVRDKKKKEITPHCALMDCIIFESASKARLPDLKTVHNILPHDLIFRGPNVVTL

B1: Rank2.4 (antibody, V domains shown)
VH: EVQLQQSGPELVKPGASVKMSCKASGYTFTDYNMHWVKQSHGKSLEWFGYIDPNNGGIRYNQLFKGKATLTVNKTSRIAYMELRSLTSEDSAVYYCAREGGYWYFDVWGTGTTVIVSS
VL: DIVMTQSHKFKSTPVGDRVSITCKASQDVSTAVAWYQQKPGQSPKLLIYWASTRHTGVPDRFTGSGSGTDYTLTISSVQAEDLALYYCQQHYSTPFTFGSGTKLEIK
B2: third additionally expressed variant of the second most expanded IgG clone (single-reactive) (antibody, V domains shown)
VH: B1 VH with T30I, F48I, D52N, I58T, R59N, L63K, T75S, R77S, I78T, I115T
VL: B1 VL with K11M, P14S, K103E
notes: also called one of the three tested variants; single-reactive antibody
B3: Rank2.5 (antibody, V domains shown)
VH: B1 VH with F48I, D52N, I58S, L63K, V72G, T75S, R77S, I78T, I115T
VL: B1 VL with K11M, P14S, V33I
B4: NP-specific, second most expanded IgG clone, most expanded antibody variant (antibody, V domains shown)
VH: B1 VH with F48I, D52N, I58T, R59S, L63K, T75S, R77S, I78T, I115T
VL: B1 VL with K11M, P14S
notes: also called second most expanded clone; previously tested variant
B5: NP-specific IgG clone other than the second most expanded clone (antibody, V domains shown)
VH: QVQLQQSDAELVKPGASVKISCKVSGYTFTDHTIHWMKQRPEQGLEWIGYIYPRDGSTKYNEKFKGKATLTADKSSSTAYMQLNSLTSEDSAVYFCARGGYYGFYYFDYWGQGTTLTVSS
VL: DIVLTQSPASLAVSLGQRATISCRASESVEYYGTSLMQWYQQKPGQPPKLLIYAASNVESGVPARFSGSGSGTDFSLNIHPVEEDDIAMYFCQQSWKVPYTFGGGTKLEIK
notes: also called one of the two NP-specific clones

What was measured:
[1] = target: T2, LCMV clone 13 nucleocapsid protein (NP), purified recombinant (LCMV clone 13 (stand-in: strain …, UniProt P09992, strain))
[2] = target: T1, LCMV clone 13 nucleocapsid protein …; test: BLI
[3] = target: T2, LCMV clone 13 nucleocapsid protein …; test: ELISA; conditions: one partner purified

Row | Binder | binding result [1] | Kd [2] [nM] | binding result [3]
1 | B1 | binds | – | –
2 | B2 | – | 370 | binds
3 | B3 | binds | – | –
4 | B4 | – | 470 | binds
5 | B5 | – | – | binds
